For test [1], the system named is healthy human skin transplanted onto beige-SCID mice. Description: Humanized psoriasis model, human skin xenografts on beige-SCID mice. In kind it is in vivo, mouse. The settings on record: IHC; vs PBS. An excerpt:
In this model, psoriasis is induced in xenotransplants of healthy human skin transplanted onto beige severe combined immunodeficiency (SCID) mice followed by intradermal (i.d.) injection of IL-2 enriched Peripheral Blood Mononuclear Cells (PBMCs) isolated from blood of psoriasis patients (Nickoloff, 1995; Wrone-Smith, 1996 Gilhar et al., 2002, 2006, 2011). The activity of these compounds was compared to that of Enbrel, a TNF inhibitor which is an approved biological drug for treatment of psoriasis. As a control for model robustness, we used dexamethasone, a steroid with suppressive effects on inflammatory cytokines and chemokines such as TNF-alpha and interferon-gamma which cause severe psoriasis. All treatments were administered intradermally, except for dexamethasone which was given topically.
2.2. Study Protocol A) Healthy human skin pieces with a width of 0.4 mm and surface area of 1.5×1.5 cm were provided from residual skin of routine plastic surgery procedures from the Plastic Surgery Department of the Rambam Medical Center, Israel. In addition, 20 mL blood samples were taken from psoriatic patients. B) Seventy (70) beige-severe combined immunodeficient mice (SCID) (weight ˜20-25 g) were included in this study. Normal healthy human donor skin was transplanted onto the beige-SCID mice as previously described (Nickoloff et al., 1995; Wrone-Smith, 1996; Gilhar et al., 2002, 2006, 2011; Kalish et al., 2009) and the mice were divided into 7 groups. C) Peripheral Blood Mononuclear Cells (PBMCs) isolated from psoriatic patients' blood were cultured in the presence of IL-2 [Prospec, 100 U/mL of RPMI 1640 media, 10% human AB serum (Sigma, St. Louis, Mo.), 1% glutamine, 1% antibiotics (media components; Biological Industries, Kibbutz Beit Haemeck, Israel)] for 14 days, as previously described (Gilhar et al, 2002). D) Four weeks following engraftment, each mouse was injected intra-dermally (i.d.) into the grafted skin lesion, with 1×10^7 activated allogeneic enriched PBMCs from psoriatic patients (FIG. 20). Cells from different psoriasis patients were equally distributed between treatment groups so that each patient is represented in each treatment group. E) On the day of PBMCs injection into the skin grafts, mice were divided randomly into treatment groups (n=9-10 mice per group) and administration of all drugs started (FIG. 20). All tested compounds including the vehicle were given intradermally (intralesional), three times a week, except for dexamethasone which was given topically for 14 consecutive days (Table 3).
F) Twenty eight days after starting the injections and treatment, skin was harvested (FIG. 20). Grafts were analyzed for the following psoriatic parameters by histology: epidermal thickening (acanthosis), suprapapillary epidermal thinning (papillomatosis), hyperkeratosis, parakeratosis, orthokeratosis, agranulosis-hypogranulosis, appearance of neutrophils in the upper spinous layer or in the corneal cell layer—Munro microabscess, regular elongation of rete ridges, angiogenesis, edema and dilated tortuous blood vessels in the dermal papilla and mononuclear cell infiltrate in the papillary dermis. Epidermal thickness was measured as detailed below, and HLA-DR, ICAM-1, Ki-67 and immune infiltrates (anti-CD3 stain) were evaluated by immunohistochemistry (IHC).
The entire skin graft was excised and placed in 10% formal saline overnight. Then, the specimens were place in 70% ethanol and were embedded according to the standard H&E protocol. Histological assessment of the skin grafts was performed by light microscopy and evaluated by two blinded observers [the second observer evaluated random slides (about 25% of all slides) to compare the data obtained by the first observer. […] Epidermal thickness was determined with an ocular micrometer at a minimum of 50 points along the epidermis selected to represent points of maximal and minimal thickness.
Representative grafts were allocated for IHC analysis. […]

In a further test the test system is male DBA/1OlaHsd mice. Briefly: CIA, early stage treatment from day 18. Type of test: in vivo, mouse. The settings on record: 3.3 mg/kg. An excerpt:
The aim of this study was to estimate the effect of C1ORF32-P8-V1-ECD-mFc (SEQ ID NO:42) on disease development in a type II Collagen induced arthritis (CIA) mouse model upon administration at early stage of disease; i.e., when specific and predictive markers for RA development are present in the serum, but before onset of clinical symptoms.
In the CIA model, arthritis is induced by immunization with type II collagen in CFA on day 1 which is followed by boosting with type II collagen in CFA on day 21. Antibodies against both CII and cyclic citrullinated peptide (CCPs) appear early after immunization, before joint swelling is observed.
To evaluate the effect of early stage treatment with C1ORF32-P8-V1-ECD-mFc (SEQ ID NO:42) on disease development treatment started on day 18 and was given IP injection, Q2D to mice from day 18 until day 32.
Male DBA/101aHsd mice weighing 16-25 grams (mean 22 g) on day 18 of the study were obtained from Harlan, Inc., Indianapolis, Ind. Mice (10/group) were anaesthetized with Isoflurane, shaved at the base of the tail, and injected intradermally with 150 μl of Freund's Complete Adjuvant (Sigma) containing bovine type II collagen (Elastin Products, Owensville, Mo.) (2 mg/ml) at the base of the tail on day 0 and again on day 21. On study day 18, mice were randomized by body weight into treatment groups. […]

B1: C1ORF32 ECD-Fc (SEQ ID NO:42): human-mouse fusion protein: human C1ORF32 ECD fused to mouse immunoglobulin Fc (SEQ ID NO:42) (protein)
chain: LQVTVPDKKKVAMLFQPTVLRCHFSTSSHQPAVVQWKFKSYCQDRMGESLGMSSTRAQSLSKRNLEWDPYLDCLDSRRTVRVVASKQGSTVTLGDFYRGREITIVHDADLQIGKLMWGDSGLYYCIITTPDDLEGKNEDSVELLVLGRTGLLADLLPSFAVEIMGSENLYFQGSGEPRGPTIKPCPPCKCPAPNLLGGPSVFIFPPKIKDVLMISLSPIVTCVVVDVSEDDPDVQISWFVNNVEVHTAQTQTHREDYNSTLRVVSALPIQHQDWMSGKEFKCKVNNKDLPAPIERTISKPKGSVRAPQVYVLPPPEEEMTKKQVTLTCMVTDFMPEDIYVEWTNNGKTELNYKNTEPVLDSDGSYFMYSKLRVEKKNWVERNSYSCSVVHEGLHNHHTTKSFSRTPGK
modifications: Fusion protein human C1ORF32-ECD fused to mouse IgG2a Fc
With B1, the “infiltration of T cells (CD3 positive cells)” value in test [1] was “significant reduction”. For the same molecule, in the test with male DBA/1OlaHsd mice, the “effect of lower dose” value is recorded as “No effect”.

These data come from patent US20190309044A1, “POLYPEPTIDES AND USES THEREOF AS A DRUG FOR TREATMENT OF AUTOIMMUNE DISORDERS” (Compugen Ltd., priority 2017, published 2019).
